Results published in patent US20160263250A1 (GENERAL HOSPITAL, published 2016).

What was measured:
Exendin-4X12-VT750 = test: cell-labeling assay, fluorescence plate reader, MIN6 cells
Exendin-4K12-VT680 = test: in vivo injection into NOD MIP-GFP mice; intravital imaging and fluorescence histology
Exendin-4 = Exendin-4 (UniProt P26349 48-86); test: blocking on MIN6 cells: Exendin-4 (0-500 nM), then Exendin-4X12-VT750 (10 nM); competitor Exendin-4X12-VT750

Measured: binding result

B1: GLP-1R naturally expressed on mouse insulinoma-derived MIN6 cells and mouse pancreatic beta cells (receptor)
chain: GPRPQGTTVSLSETVQKWREYRRQCQRFLTEAPLLATGLFCNRTFDDYACWPDGPPGSFVNVSCPWYLPWASSVLQGHVYRFCTAEGLWLHKDNSSLPWRDLSECEESKRGERNFPEEQLLSLYIIYTVGYALSFSALVIASAILVGFRHLHCTRNYIHLNLFASFILRALSVFIKDAALKWMYSTAAQQHQWDGLLSYQDSLGCRLVFLLMQYCVAANYYWLLVEGVYLYTLLAFSVFSEQRIFKLYLSIGWGVPLLFVIPWGIVKYLYEDEGCWTRNSNMNYWLIIRLPILFAIGVNFLIFIRVICIVVSKLKANLMCKTDIKCRLAKSTLTLIPLLGTHEVIFAFVMDEHARGTLRFIKLFTELSFTSFQGLMVAILYCFVNNEVQMEFRKCWERWRLEHLNIQRDCSMKPLKCPTSSVSSGATVGSSVYAATCQSSYS
notes: whole, on cells; The species follows from the cell line and the animals; also called GLP-1R (MIN6); GLP-1 receptors in vivo (mouse)
binds: all assays above
